From IntAct's records for PubMed 20543827

B1: Retinoic acid receptor alpha (Homo sapiens), P10276 (parent)
chain: MASNSSSCPTPGGGHLNGYPVPPYAFFFPPMLGGLSPPGALTTLQHQLPVSGYSTPSPATIETQSSSSEEIVPSPPSPPPLPRIYKPCFVCQDKSSGYHYGVSACEGCKGFFRRSIQKNMVYTCHRDKNCIINKVTRNRCQYCRLQKCFEVGMSKESVRNDRNKKKKEVPKPECSESYTLTPEVGELIEKVRKAHQETFPALCQLGKYTTNNSSEQRVSLDIDLWDKFSELSTKCIIKTVEFAKQLPGFTTLTIADQITLLKAACLDILILRICTRYTPEQDTMTFSDGLTLNRTQMHNAGFGPLTDLVFAFANQLLPLEMDDAETGLLSAICLICGDRQDLEQPDRVDMLQEPLLEALKVYVRKRRPSRPHMFPKMLMKITDLRSISAKGAERVITLKMEIPGSMPPLIQEMLENSEGLDTLSGQPGGGGRDGGGLAPPPGSCSPSLSPSSNRSSPATHSP

Variants of: B1
Settings: with ncor1_human NCOR1, O75376

| Variant | effect of a mutation on the interaction |
| --- | --- |
| I396E | decreasing interaction |

Variants of: B1
Settings: with ncor1_mouse Ncor1, Q60974
ncor1_mouse Ncor1, Q60974, sequence (Q60974 whole entry): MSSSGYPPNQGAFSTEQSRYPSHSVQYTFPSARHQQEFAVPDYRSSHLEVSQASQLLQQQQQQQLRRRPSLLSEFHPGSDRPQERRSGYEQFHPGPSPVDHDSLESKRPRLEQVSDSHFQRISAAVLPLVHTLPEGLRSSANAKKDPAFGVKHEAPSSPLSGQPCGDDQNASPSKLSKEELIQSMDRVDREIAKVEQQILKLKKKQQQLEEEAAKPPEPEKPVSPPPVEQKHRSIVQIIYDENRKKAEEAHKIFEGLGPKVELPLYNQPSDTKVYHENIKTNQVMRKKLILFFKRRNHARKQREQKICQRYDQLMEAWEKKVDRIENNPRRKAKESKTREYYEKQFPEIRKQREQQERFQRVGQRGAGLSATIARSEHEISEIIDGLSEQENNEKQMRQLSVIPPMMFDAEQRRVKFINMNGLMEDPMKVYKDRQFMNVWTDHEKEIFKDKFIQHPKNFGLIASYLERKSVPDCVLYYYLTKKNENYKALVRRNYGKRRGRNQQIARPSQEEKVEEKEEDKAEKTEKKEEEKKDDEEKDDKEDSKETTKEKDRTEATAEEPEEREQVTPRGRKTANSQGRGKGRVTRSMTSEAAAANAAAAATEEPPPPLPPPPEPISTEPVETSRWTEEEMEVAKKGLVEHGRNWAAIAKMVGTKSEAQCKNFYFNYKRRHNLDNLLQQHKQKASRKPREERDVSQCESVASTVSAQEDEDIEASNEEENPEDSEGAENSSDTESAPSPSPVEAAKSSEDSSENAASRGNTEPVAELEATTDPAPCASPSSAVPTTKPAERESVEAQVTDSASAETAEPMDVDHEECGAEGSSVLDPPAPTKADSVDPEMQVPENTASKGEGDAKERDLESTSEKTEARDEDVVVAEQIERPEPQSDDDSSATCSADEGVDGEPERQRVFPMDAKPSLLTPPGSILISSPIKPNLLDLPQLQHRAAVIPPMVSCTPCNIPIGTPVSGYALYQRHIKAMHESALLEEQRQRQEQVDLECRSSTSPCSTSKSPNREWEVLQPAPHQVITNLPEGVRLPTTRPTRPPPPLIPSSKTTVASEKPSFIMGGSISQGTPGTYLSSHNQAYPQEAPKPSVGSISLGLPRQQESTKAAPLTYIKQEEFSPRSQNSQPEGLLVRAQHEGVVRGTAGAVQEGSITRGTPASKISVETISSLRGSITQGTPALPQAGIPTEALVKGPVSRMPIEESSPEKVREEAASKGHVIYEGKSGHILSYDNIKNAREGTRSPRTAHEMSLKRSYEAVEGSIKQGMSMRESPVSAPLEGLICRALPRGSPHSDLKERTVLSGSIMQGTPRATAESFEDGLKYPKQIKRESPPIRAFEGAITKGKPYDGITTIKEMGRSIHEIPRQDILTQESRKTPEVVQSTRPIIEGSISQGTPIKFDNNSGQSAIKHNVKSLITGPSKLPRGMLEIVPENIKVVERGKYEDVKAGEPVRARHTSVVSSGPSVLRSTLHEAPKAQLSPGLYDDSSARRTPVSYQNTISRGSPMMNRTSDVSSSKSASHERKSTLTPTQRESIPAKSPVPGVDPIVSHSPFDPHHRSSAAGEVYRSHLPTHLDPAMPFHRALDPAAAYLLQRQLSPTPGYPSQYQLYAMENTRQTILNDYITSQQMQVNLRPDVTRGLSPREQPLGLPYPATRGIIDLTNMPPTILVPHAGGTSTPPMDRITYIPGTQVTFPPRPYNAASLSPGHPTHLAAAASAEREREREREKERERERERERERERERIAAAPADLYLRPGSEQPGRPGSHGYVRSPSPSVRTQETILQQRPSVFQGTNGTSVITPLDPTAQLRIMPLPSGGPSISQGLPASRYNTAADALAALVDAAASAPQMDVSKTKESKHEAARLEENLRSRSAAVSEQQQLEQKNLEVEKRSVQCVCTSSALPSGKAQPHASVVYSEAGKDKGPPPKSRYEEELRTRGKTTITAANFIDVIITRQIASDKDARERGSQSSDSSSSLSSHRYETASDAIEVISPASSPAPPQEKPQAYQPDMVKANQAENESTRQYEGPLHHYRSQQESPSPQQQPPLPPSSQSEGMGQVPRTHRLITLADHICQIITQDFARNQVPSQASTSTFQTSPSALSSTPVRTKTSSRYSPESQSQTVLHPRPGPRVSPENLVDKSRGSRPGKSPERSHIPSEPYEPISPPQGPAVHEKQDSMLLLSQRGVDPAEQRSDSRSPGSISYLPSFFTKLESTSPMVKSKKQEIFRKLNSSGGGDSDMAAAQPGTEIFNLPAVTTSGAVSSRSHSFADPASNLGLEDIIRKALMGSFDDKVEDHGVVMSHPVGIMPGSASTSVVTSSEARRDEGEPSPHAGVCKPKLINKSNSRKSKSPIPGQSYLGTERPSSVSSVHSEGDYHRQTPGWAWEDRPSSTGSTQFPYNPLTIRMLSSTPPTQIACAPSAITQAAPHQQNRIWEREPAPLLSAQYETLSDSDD

| Variant | effect of a mutation on the interaction |
| --- | --- |
| I396E | disrupting interaction |

Variants of: B1
Settings: with ncor2_human NCOR2, Q9Y618
ncor2_human NCOR2, Q9Y618, sequence (Q9Y618 whole entry): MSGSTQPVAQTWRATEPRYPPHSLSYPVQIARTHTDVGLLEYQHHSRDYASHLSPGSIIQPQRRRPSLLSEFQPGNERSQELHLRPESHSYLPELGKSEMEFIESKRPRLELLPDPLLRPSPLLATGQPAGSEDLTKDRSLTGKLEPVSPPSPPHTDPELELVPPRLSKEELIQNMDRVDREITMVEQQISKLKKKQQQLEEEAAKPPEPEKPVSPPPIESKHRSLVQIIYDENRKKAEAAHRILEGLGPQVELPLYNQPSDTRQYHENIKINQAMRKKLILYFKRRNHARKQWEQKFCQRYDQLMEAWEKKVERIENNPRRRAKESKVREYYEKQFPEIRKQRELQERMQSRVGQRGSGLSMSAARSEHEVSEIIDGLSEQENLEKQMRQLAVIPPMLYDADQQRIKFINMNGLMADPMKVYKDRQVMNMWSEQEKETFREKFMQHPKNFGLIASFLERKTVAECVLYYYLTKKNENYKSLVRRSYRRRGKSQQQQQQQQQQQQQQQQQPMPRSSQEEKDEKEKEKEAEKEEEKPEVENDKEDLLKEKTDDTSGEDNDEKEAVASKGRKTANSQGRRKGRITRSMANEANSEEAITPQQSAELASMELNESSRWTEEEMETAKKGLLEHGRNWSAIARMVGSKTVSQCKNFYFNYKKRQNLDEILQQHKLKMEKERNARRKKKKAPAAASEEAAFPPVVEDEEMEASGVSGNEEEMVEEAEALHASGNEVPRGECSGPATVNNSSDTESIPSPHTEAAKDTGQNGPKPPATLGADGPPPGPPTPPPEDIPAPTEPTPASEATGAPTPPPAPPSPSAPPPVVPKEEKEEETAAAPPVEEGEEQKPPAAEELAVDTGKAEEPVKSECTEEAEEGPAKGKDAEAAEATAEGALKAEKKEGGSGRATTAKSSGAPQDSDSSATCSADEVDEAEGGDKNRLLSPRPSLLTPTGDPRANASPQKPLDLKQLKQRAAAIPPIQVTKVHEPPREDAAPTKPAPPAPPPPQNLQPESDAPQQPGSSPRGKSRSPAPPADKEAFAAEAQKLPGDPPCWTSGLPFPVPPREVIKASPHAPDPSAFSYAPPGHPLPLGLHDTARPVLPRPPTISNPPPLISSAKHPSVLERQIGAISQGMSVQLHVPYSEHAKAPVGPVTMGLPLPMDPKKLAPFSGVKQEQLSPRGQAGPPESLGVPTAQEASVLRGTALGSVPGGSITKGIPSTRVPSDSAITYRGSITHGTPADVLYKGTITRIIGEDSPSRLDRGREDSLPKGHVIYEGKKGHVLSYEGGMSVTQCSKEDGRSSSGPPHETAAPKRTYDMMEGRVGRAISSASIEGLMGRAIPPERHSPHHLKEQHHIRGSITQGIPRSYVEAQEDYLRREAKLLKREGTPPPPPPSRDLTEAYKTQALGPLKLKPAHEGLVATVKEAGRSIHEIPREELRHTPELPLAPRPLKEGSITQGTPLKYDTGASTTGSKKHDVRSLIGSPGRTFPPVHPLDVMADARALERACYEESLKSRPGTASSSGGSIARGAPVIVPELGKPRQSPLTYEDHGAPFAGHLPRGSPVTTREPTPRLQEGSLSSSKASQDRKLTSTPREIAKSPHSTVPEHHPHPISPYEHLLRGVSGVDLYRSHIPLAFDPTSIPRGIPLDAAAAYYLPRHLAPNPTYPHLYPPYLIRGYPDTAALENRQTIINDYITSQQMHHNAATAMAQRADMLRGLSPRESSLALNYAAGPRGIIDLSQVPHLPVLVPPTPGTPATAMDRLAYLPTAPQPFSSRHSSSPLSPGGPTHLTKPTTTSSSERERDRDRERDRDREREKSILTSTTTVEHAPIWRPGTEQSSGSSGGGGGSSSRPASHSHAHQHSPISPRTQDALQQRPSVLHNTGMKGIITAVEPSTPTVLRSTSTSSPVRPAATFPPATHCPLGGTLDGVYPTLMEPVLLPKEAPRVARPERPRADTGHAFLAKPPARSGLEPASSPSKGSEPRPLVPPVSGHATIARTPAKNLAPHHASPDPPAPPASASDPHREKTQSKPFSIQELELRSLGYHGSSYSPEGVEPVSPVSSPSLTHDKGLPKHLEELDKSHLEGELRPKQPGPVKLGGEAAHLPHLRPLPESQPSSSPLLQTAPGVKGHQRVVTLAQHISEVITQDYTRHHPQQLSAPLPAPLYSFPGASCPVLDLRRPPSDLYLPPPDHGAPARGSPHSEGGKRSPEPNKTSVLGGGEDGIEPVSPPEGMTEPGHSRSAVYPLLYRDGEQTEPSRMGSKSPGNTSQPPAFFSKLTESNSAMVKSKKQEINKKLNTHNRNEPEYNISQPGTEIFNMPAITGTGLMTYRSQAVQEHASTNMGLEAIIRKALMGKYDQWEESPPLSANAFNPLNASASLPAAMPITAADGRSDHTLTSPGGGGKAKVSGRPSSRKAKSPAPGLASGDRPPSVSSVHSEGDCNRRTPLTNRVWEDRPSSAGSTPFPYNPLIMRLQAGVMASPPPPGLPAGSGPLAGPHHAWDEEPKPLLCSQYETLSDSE

| Variant | effect of a mutation on the interaction |
| --- | --- |
| I396E | disrupting interaction |

Variants of: B1
Settings: with ncor2_human NCOR2, Q9Y618
Remark: another data set of the same source

| Variant | effect of a mutation on the interaction |
| --- | --- |
| I396E | decreasing interaction |
